Where only a bound is given, the exact number is not on record here.

Six sequences from the Immune Epitope Database (IEDB) can be followed below.

One assay concerns the target HLA-B*15:17. The assay is described as follows: IEDB peptide-MHC binding, purified MHC/competitive/fluorescence; filed as Kd, often an IC50 or EC50 that approximates it; ≥ and ≤ were set here for values at or beyond the usual limits of such assays.
Assay [1] deals with HLA-B*51:01. The assay is described as above.
The target in a further assay is HLA-A*26:01. Described as above.
Another assay concerns the target HLA-B*27:03. Described as above.
The target in another assay is HLA-A*02:01. Briefly: IEDB peptide-MHC binding, purified MHC/direct/fluorescence; filed as Kd, often an IC50 or EC50 that approximates it; ≥ and ≤ were set here for values at or beyond the usual limits of such assays.
In a further assay the target is HLA-B*27:05. The description is as above.
A further assay deals with HLA-B*58:01. Described as above.
In the next assay the target is HLA-A*02:11. Described as above. The settings on record: source organism: Sudan ebolavirus.
The next assay deals with HLA-A*31:01. The assay is described as above.
For the next assay, the target named is HLA-A*02:03. The description is as above.
Assay [2] concerns the target HLA-B*15:01. The description is as above.
Assay [3] concerns the target HLA-B*46:01. Described as above.
Another assay addresses HLA-B*48:01. The description is as above.
For the next assay, the target named is HLA-A*02:12. The assay is described as above.
The next assay concerns the target HLA-A*29:02. The assay is described as above.
The target of the next assay is HLA-A*03:01. The description is as above.
The target in assay [4] is HLA-B*18:01. The assay is described as above.
In the next assay the target is HLA-A*01:01. The assay is described as above.
The next assay has as its target HLA-A*68:02. Described as above.
Assay [5] addresses HLA-B*40:01. Described as above.
For assay [6], the target named is HLA-A*69:01. The description is as above.
Another assay concerns the target HLA-B*44:02. Described as above.
The target of assay [7] is HLA-B*57:01. Described as above.
The target in another assay is HLA-A*24:03. The assay is described as above.
In assay [8] the target is HLA-B*39:01. The assay is described as above.
The target of the next assay is HLA-A*02:19. The assay is described as above. The settings on record: source organism: Sudan ebolavirus.
For assay [9], the target named is HLA-B*51:01. The description is as above.
The target in the next assay is HLA-B*07:02. The assay is described as above.
The target in a further assay is HLA-A*11:01. The assay is described as above. Conditions: source organism: Yellow fever virus.
Assay [10] concerns the target HLA-B*15:01. Briefly: IEDB peptide-MHC binding, purified MHC/competitive/fluorescence; filed as Kd, often an IC50 or EC50 that approximates it; ≥ and ≤ were set here for values at or beyond the usual limits of such assays. Conditions: source organism: Zaire ebolavirus.
Assay [11] addresses HLA-B*46:01. Described as above. Conditions: source organism: Zaire ebolavirus.
In assay [12] the target is HLA-B*18:01. Described as above. Conditions: source organism: Zaire ebolavirus.
The target of assay [13] is HLA-A*69:01. Described as above. The settings on record: source organism: Zaire ebolavirus.
The target in assay [14] is HLA-B*57:01. Described as above. Conditions: source organism: Zaire ebolavirus.
The target in assay [15] is HLA-B*39:01. The assay is described as above. The settings on record: source organism: Zaire ebolavirus.
The target in another assay is HLA-A*30:01. Briefly: IEDB peptide-MHC binding, purified MHC/competitive/radioactivity; filed as Kd, often an IC50 or EC50 that approximates it; ≥ and ≤ were set here for values at or beyond the usual limits of such assays. The settings on record: source organism: Dengue virus 2 Jamaica/1409/1983.
The target of assay [16] is HLA-B*40:01. Described as above. The settings on record: source organism: Dengue virus 2 Jamaica/1409/1983.
Where [17] appears, read: source organism: Sudan ebolavirus.
Where [18] appears, read: source organism: Sudan virus - Boniface, Sudan,1976.
The mark [19] stands for this setting: source organism: Yellow fever virus.
Where [20] appears, read: source organism: Zaire ebolavirus.
The mark [21] stands for this setting: source organism: Reston ebolavirus - Reston.

With TMMRHRREL, the Kd with HLA-B*15:17 (setting [17]), with HLA-B*51:01 [1] (setting [17]), with HLA-A*26:01 (setting [17]), with HLA-B*27:03 (setting [17]), in the assay with HLA-A*02:01 (setting [18]) and in the assay with HLA-B*27:05 (setting [18]) was at least 20 µM each time. Also, the dissociation constant Kd in the assay with HLA-B*58:01 (setting [18]), with HLA-A*02:11, in the assay with HLA-A*31:01 (setting [18]), in the assay with HLA-A*02:03 (setting [17]), in the assay with HLA-B*15:01 [2] (setting [18]) and in the assay with HLA-B*46:01 [3] (setting [18]) was at least 20 µM throughout. Moreover, the dissociation constant Kd with HLA-B*48:01 (setting [18]), with HLA-A*02:12 (setting [17]), with HLA-A*29:02 (setting [18]), with HLA-A*03:01 (setting [18]), in the assay with HLA-B*18:01 [4] (setting [18]) and in the assay with HLA-A*01:01 (setting [18]) was at least 20 µM throughout. Moreover, the Kd with HLA-A*68:02 (setting [17]), with HLA-B*40:01 [5] (setting [18]), with HLA-A*69:01 [6] (setting [18]), with HLA-B*44:02 (setting [18]), with HLA-B*57:01 [7] (setting [18]) and with HLA-A*24:03 (setting [17]) was at least 20 µM each time. In addition, the dissociation constant (Kd) in the assay with HLA-B*39:01 [8] (setting [18]) and in the assay with HLA-A*02:19 was at least 20 µM in each case.

In the assay with HLA-B*51:01 [9] (source organism: Yellow fever virus 17D), RVSSDQSAL registered a Kd of at least 20 µM.

On to TKDTNDNNL, for which the Kd with HLA-A*02:01 (setting [19]), in the assay with HLA-B*07:02 (setting [19]), with HLA-B*27:05 (setting [19]), with HLA-B*58:01 (setting [19]), in the assay with HLA-A*31:01 (setting [19]) and with HLA-B*15:01 [2] (setting [19]) was at least 20 µM each time. Also, the dissociation constant (Kd) in the assay with HLA-B*46:01 [3] (setting [19]), with HLA-B*48:01 (setting [19]), with HLA-A*29:02 (setting [19]), in the assay with HLA-A*03:01 (setting [19]), in the assay with HLA-B*18:01 [4] (setting [19]) and with HLA-A*11:01 was at least 20 µM throughout. The Kd with HLA-A*01:01 (setting [19]), in the assay with HLA-B*40:01 [5] (setting [19]), with HLA-A*69:01 [6] (setting [19]), with HLA-B*44:02 (setting [19]) and with HLA-B*57:01 [7] (setting [19]) was at least 20 µM in each case.

Regarding KLWTSISCA, the Kd with HLA-B*15:01 [10], with HLA-B*46:01 [11], with HLA-B*18:01 [12], with HLA-B*15:17 (setting [20]), in the assay with HLA-B*51:01 [1] (setting [20]) and with HLA-A*26:01 (setting [20]) was at least 20 µM in each case. Further, the Kd with HLA-A*69:01 [13] is at least 20 µM; with HLA-B*57:01 [14], at least 20 µM; with HLA-B*39:01 [15] it was at least 20 µM; in the assay with HLA-B*27:03 (setting [20]) it was at least 20 µM; with HLA-A*02:01 (source organism: Sudan ebolavirus - Maleo (1979)) it was 0.0082 µM; with HLA-A*29:02 (setting [20]), at least 20 µM. The Kd with HLA-A*03:01 (setting [20]), with HLA-A*68:02 (setting [20]) and in the assay with HLA-A*24:03 (setting [20]) was at least 20 µM in each case.

As to SKLRALLTL, the dissociation constant (Kd) in the assay with HLA-B*15:17 (setting [20]), in the assay with HLA-B*51:01 [1] (setting [20]), with HLA-A*26:01 (setting [20]), in the assay with HLA-B*27:03 (setting [20]), with HLA-A*02:01 (setting [21]) and with HLA-B*07:02 (setting [21]) was at least 20 µM in each case. Moreover, the Kd in the assay with HLA-B*58:01 (setting [21]), with HLA-A*31:01 (setting [21]), with HLA-A*02:03 (setting [20]), with HLA-B*15:01 [2] (setting [21]), in the assay with HLA-B*46:01 [3] (setting [21]) and with HLA-A*02:12 (setting [20]) was at least 20 µM in each case. The Kd with HLA-A*29:02 (setting [21]), with HLA-A*03:01 (setting [21]), with HLA-B*18:01 [4] (setting [21]), with HLA-A*01:01 (setting [21]), with HLA-A*68:02 (setting [20]) and in the assay with HLA-B*40:01 [5] (setting [21]) was at least 20 µM throughout. The dissociation constant (Kd) with HLA-A*69:01 [6] (setting [21]) was at least 20 µM; with HLA-B*44:02 (setting [21]), at least 20 µM; in the assay with HLA-B*57:01 [7] (setting [21]) it was at least 20 µM; with HLA-A*24:03 (setting [20]) it was at least 20 µM; with HLA-B*39:01 [8] (setting [21]), 0.618 µM.

Regarding RERLSRMAI, the values for the dissociation constant Kd with HLA-A*30:01, with HLA-B*40:01 [16] and in the assay with HLA-B*51:01 [9] (source organism: dengue virus type 2) were 0.828 µM, 0.0296 µM and at least 20 µM, respectively.

A word on the Kd: it is the free concentration of one partner at which half of the binding sites on the other are occupied at equilibrium, for simple one-to-one binding.
